Assay results: article PMC4297295, “Structural Conservation Despite Huge Sequence Diversity Allows EPCR Binding by the PfEMP1 Family Implicated in Severe Childhood Malaria” (Cell Host & Microbe, 2015)

T1: endothelial protein C receptor (EPCR), extracellular domain, biotinylated on the N-terminal BAP tag (human, UniProt Q9UNN8 18-210, biotin attached to the N-terminal BAP tag (BirA))
T1 construct: also called biotinylated recombinant EPCR; ECPR
T1 sequence: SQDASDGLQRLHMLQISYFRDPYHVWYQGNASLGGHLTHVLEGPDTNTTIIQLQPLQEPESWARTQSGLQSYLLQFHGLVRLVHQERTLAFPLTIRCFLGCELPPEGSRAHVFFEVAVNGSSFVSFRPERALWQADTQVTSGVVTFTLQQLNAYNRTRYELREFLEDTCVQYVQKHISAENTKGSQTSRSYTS

B1: CIDRα1.7 domain 1965-8 (patient isolate 1965) (domain or fragment)
chain: PHCGVDCNGKKCTLKSDNDPQCVNKLKYEPPYGVKPTEITVLYSADQEGDISKKLSEFCNDEKKINSKNIETWKCYYKSTYNNACKMDKNSKNHTPEVKITKFHNFFEMWIVYLLTETITWNDKLKTCMNNIKTTDCIDECNTNCVCFDKWVKQKGKEWNSIKKLFIKEQKNPKQNYGNINIYFESFFFHVMDKLNHDEAKWNELMNELKQIIDSSKANTDNKNLQDAIKVLFDHLKEIATICKDNNTNEACEDSKKETQNPC
B2: CIDRα1.8b domain 2053-3 (patient isolate 2053) (domain or fragment)
chain: PICGVKCENKSCTDKENDDDCKNKKKYDPPKGVTPIDIPILYSGDKQGDITKKLEDFCYNRTKENEKTYQNWKCYYKDSEFNKCKMESKSGKSTTQEKIISFDEFFYLWVNNLLIDSIMWENDIKHCINNTNVTNCKNKCNENCKCFKNWVKKKEEEWTKVKQILGNRSENLNNYYNKLNSLFKGFFFEVVYKFNNKEEKWNKLTEKLEQKIGSSKGKEGVENPKDAIELLLDHLKENAITCKDNNSLEEDKNCPKIKINPC
B3: CIDRα1.1 domain GA011_ERS009959 (domain or fragment)
chain: PDCVVYCEGGECKENENGDNCRSEIIKEIVRSETPTVIDVLYSGNGQDHITEKLDHFCSSTNKEDRKYYKTLKCYNKNNDYNKCEMISWLYQDPKESNLMLSIQCFYSWAQNLLIDTIRWEHQLKDCINNTNVTDCKSNCNKNCKCYKKWIEQKGSEWQQVKQVLKKKDKNSENYYDKLKDVFDTLYFEVMHELNKGKEKGKSEELTEDLKKKFGPSKKNTDAADSKDAIEFLLDHLNDNAITCKDNNSLAVENCTRTKSNPC
notes: also called CIDRa1.1 GA011_ERS009959; GA011 (1.1)
B4: CIDRα1.1 domain of PfEMP1 IT4var19 (domain or fragment)
chain: PDCVVVCEGGNCKEKTEDDNCRSEIIKKILKYETPTPIDVLYSGKGQGLITKKLEDFCSSTTNYEGTNVQKWKCYNKNKDYNNCEMNISSYKDATDPNVMLSVECFHSWAKNLLIDTIRWEHQLKNCINNTNVTDCTSKCIKNCECYEKWIKEKEKEWPQVKGVLKKKDETSHNYYDKLKDVFDRFLFEVKGALDQDEKGKWDQFTKDLEKKFGPSVESAGTANSQDAIELLLDHLNDNATTCKDNNSLAVENC
notes: also called CIDRa1.1 IT4var19_IT4; IT4var19 (1.1)
B5: CIDRα1.4 domain of PfEMP1 DD2var32 (domain or fragment)
chain: PDCGVECNKGTCKKKPNDSNCRNNEAYIPPRDVTPTKINVLYSGDGHGDITKKLKGFCSNPTDYDGKNYENWQCYYKSSEDNKCQMTSLSQTLQKHHYVMSFYAFFDFWVRKFLIDTIKWENELKNCINNTTTDCSDGCNKHCVCFDKWVKQKEKEWNSIKKLFTKKNNVPQPYYTNINNLFDSFYFQVMYELNHDEAKWKELTQELRNKINSSKKNTDAADSKDAIELLLEYLKEKSTICKDNNTNEAC
notes: also called CIDRa1.4 DD2var32_DD2; DD2var32 (1.4)
B6: CIDRα1.6a domain of PfEMP1 HB3var02 (domain or fragment)
chain: PECGVQCSGTTCTPKKVIHPNCKDKETYEPGDAKTTDITVLYSGDEEGDIAQKLQDFCNDKNKENDENYEKWQCYYKSSEINKCQMTRSSKKVPKHRGVMSFYAFFDLWVKNLLIDSINWKNDLTNCINNTNVTDCNKDCNKNCVCFDQWVIKKEEEWKNVNKVFENKNIDLHDYYNKLNKHFEGYFFHVMKELNKEEKWYKLMEDLKEKIDFSKGKADGKNSEGAIKVLFDHLKEIAEKCIHNNSNESCEASTNRTPNPC
notes: also called CIDRa1.6a HB3var02_HB3; HB3var02 (1.6a)
B7: CIDRα1.8a domain of PfEMP1 MAL6P1.316 (domain or fragment)
chain: PACVVECDGGKCEEKKNSDGTCIEAQIYTVVRDETPTPIKVLFSGDHQKDITKKLSSFCKNPESENNRDYQTWQCYYKSSDYNNCEMKGSLYKVEGDPNIIVSHECFHLWVQSLLIDTIKWETKLKKCINNTNVTNCYNKCNKNCECFENWVEQKKKEWENVNDVYKDQKQSLGIYYEKLENLFKSNFFQVMKALEGDEKGKWYQFKDDLKKKFEPSEKNTRTTDSQDAIKLILDHLKDNATTCKDNNSLEEDENC
notes: also called CIDRa1.8a MAL6P1.316_3D7; MAL6P1.316 (1.8a)
B8: CIDRα1.6a domain of PfEMP1 PFD1235w (domain or fragment)
chain: PECGVQCSGTTCTPKKVIHPNCKDKETYEPGDAKTTDITVLYSGDEEGDIAQKLQDFCNDKNKENDENYEKWQCYYKSSEINKCQMTPSSHKVPKHGYIMSFYAFFDLWVKNLLIDSINWKNDLTNCINNTNVTDCKNDCNTNCKCFENWAKTKENEWKKVKTIYKNENGNTNNYYKKLNNHFQGYFFHVMKELNKEEKWYKLMEDLKEKIDSSNLKNGTKDSEGAIKVLFDHLKDIAERCIDNNSKDSC
notes: also called CIDRa1.6a PFD1235w_3D7; PFD1235w (1.6a)
B9: CIDRα1.5a domain 1965-2 (patient isolate 1965) (domain or fragment)
chain: PDCGVECKNGRCKKKTDADGNCGKTQIYDIPKDVTPTDINVLYSGDEYGDIAKRLSEFCRDSKKENGKNTEIWHCYYIGDKHNQCKMEKAVAENKHQTKITTFDFFFDLWIKNLLRDTINWKSQLKNCINNTNKTNCNKTCNENCKCFENWVNQKEKEWNNMKELFKNKNRTSQNYYNKLKSHFDNYFFLVINNVNKGEAKWKKFTDELRNKIDSSKAKNGTSDSQDSIKMLLEHLKEDGTTCTANNPDSICNTPGTDARSLEPASKIEPQNKDTRTNPC
B10: CIDRα1.7 domain of PfEMP1 IT4var22 (domain or fragment)
chain: PYCGLDCGGKTCTAKQEIYPDCVYNGAYEPPNGAETTEITVLYSADQEGDISNKLSEFCNDENNKNSQKWQCYYVSSENNGCKMEKKNANHTPEVKITKFHNFFEMWVTYLLTETITWKDKLKTCMNNTKTADCIHECNKNCVCFDKWVKQKEDEWNSIKKLFTKEKKMPKQYYGNINIYFESFFFHVMKKLNKEAKWNKLMDELRNKIELSKGNEGTKDLQDAIELLLEYLKEKSTICKDNNTNEACDPTVDPTKNPC
notes: also called CIDRa1.7 IT4var22_IT4; IT4var22 (1.7)
B11: CIDRα1.8a domain GA026_ERS010178 (domain or fragment)
chain: PDCVVDCKGAKCEQKMKPDGTCEKPQIYTRPKDVTPKIIKVLFSGDNQEDITEKLSSFCSNPKSKIDRNYQTWKCYYKSGHYNICEMKGSLYKYPEHPNDMLSVECFHLWVKNLLIDTIKWETKLKKCINNTNVTDCDNECNKNCECFENWVEQKKKEWEEVRKVYKDQKESLGIYYKKLENLFDTYYFEVMGALENEEKHGKWNQLTAKLKQIIESHKKNRHSGNSQDAIELLLDHLKETATTCKDNNSNESCDVSKDSKTNPC
notes: also called CIDRa1.8a GA026_ERS010178; GA026 (1.8a)
B12: CIDRα1.5a domain GA013_ERS010323 (domain or fragment)
chain: PYCGVDCSNGTCKENGNDDNCGEQQNYNIPKGVDPTNINVLYSVDGHGDIAKRLSTFCNDKNNKNAKNNEIWQCYYIGHKNNQCKIEKSVSQKKHQTKIAPFDYFFDLWVTNLLRDNIDWKNELKNCINNKNTEKCNKECNDNCKCFQSWLNKKEDEWNKITGLLKNKNGILQNYYNKLKSHFDYYFFQVINNINKGEEKWKKLKEDLKKEIDFSKLKTNTGDSQDSIKLLLDHENKNAGTCLKNNPIDSCPKAEPQKSDEKVQPQDTPPNSC
notes: also called CIDRa1.5a GA013_ERS010323; GA013 (1.5a)
B13: CIDRα1.1 domain of PfEMP1 RAJ116var08 (domain or fragment)
chain: PDCVVDCTGGNCKENKKHDNCRSKIIEEILRSEETTDIDVLYSGKGPGAITKKLHDFCSNPNNYKRANVQKWKCYNKNKDYNNCEMNISSYKDATDPNVMLSVQCFYSWAQNLLIDIIRWEHQLKDCINNTNVTDCDNECNKNCECFEKWIKQKQKEWQQVKEVLKKKDENSHNYYNKLRSVFDSFLYQVMFALNNEEKGKWDQFTEDLEKKFESSKKSAGTGNSQDAIEFLLDHLNDNAITCKDNNSKESC
notes: also called CIDRa1.1 RAJ116var08_RAJ116; RAJ116var08 (1.1)
B14: CIDRα1.5b domain 1983-13 (patient isolate 1983) (domain or fragment)
chain: PDCGVECNGKTCTKKEETDENCGKPPNYTIPTDVTPTDINVLYSGDEQGYITKRLSEFCGPTKNYIGKKNELWKCYYDDKQKNNNNNNNICKLQPNAHIKNENIIINFDNFFEFWVRRFLNDTIDWKYDLNTCMNFTNTTKCNNNCNKNCKCFEQWVNIKKTEWKNVTEYFFKHDETSKKKYCEILKDIFENYYVEVIEKFYKGKHKWKERIEKLKNMDCSQVKIGTNASQDQIDIFLSNLKGDATQCTSKNPKSACNKPHAARIITRATTRNPC
B15: CIDRα1.1 domain of PfEMP1 IT4var20 (domain or fragment)
chain: PDCVVQCKGGKCTEDKKNDKCRSKIIKKILQSEEPTEIHVLNSDDKQGDITKKLEVFCSSTTNYEGRNVQKWKCYNKNSDYNNCEMNISSYKDSTDANVMLSVECFHSWAKNLLIDTIKWEHQLKNCINNTNVTYCESKCIKNCECYEKWIKRKEHEWEKVKNVFGNNNRMSYIYYNNLSRVFDSFLFQVMFALDQDEKGKWDQFTEDLKKKFEPSKTNTPTGKSQDAIEFLLDHLKDNALTCRDNNSNESCDVSKKVKTNPC
notes: also called CIDRa1.1 IT4var20_IT4; IT4var20 (1.1)
B16: CIDRα1.6b domain GA018_ERS010570 (domain or fragment)
chain: PYCGLDCVGTECTAKEEIYPDCVYNGEYDPPKDVRPTEINVIDSGNAVNISEKLNDFCTNPTNPNDKIYQKWQCYYKSSKVNKCQMTSLTQTLQKHHYVMTFYIFFDLWVKNLLRDSVKWEIELKDCINNTNVTDCNNKCNKNCVCFDKWVKQKKKEWDSIKKLFKTEKDEMKKYYTNINKNFEFFFFRVMYELNNEEAKWNKLMENLRIKIKSSKRNKRTKDSEGVIKVLFDHLKETATICKDNNTNEACVSSQNATTNPC
notes: also called CIDRa1.6b GA018_ERS010570; GA018 (1.6b)
B17: CIDRα1.6b domain GA019_ERS010031 (domain or fragment)
chain: PYCGLDCVGKTCTAKQEIYPDCVYNGDYEPPNGAETTEITVLYNDNEGDMSKKLSQFCSNENKENIENYQKWKCYYKDRDDIECEMISSSQKDEKHRKVMIFYNFFDLWVKNLLRDSIKWEIELKDCINNTNVTDCKSVCNVNCECFDKWVKQKEKEWDSIKKLLKKKKNVSKKYYTNINKNFEFFFFRVMYELNNEEAKWNKLMENLRTKINSYKKNKRTKDSEGAIKVLFDHLKETATICKDNNTNEACVSSQNATTNPC
notes: also called CIDRa1.6b GA019_ERS010031; GA019 (1.6b)

Target: T1, endothelial protein C receptor (EPCR), …
Test: SPR
Conditions: both partners purified

| Binder | Kd | koff | kon |
| --- | --- | --- | --- |
| B1 | 3.5 nM | 0.00021 s⁻¹ | 59200 M⁻¹ s⁻¹ |
| B2 | 4 nM | 7.65e-05 s⁻¹ | 20200 M⁻¹ s⁻¹ |
| B3 | 182 nM | 7.24e-05 s⁻¹ | 389 M⁻¹ s⁻¹ |
| B4 | 16 nM | 0.000364 s⁻¹ | 22700 M⁻¹ s⁻¹ |
| B5 | 0.3 nM | 0.000343 s⁻¹ | 1.06e+06 M⁻¹ s⁻¹ |
| B6 | 1400 nM | 0.00139 s⁻¹ | 975 M⁻¹ s⁻¹ |
| B7 | 50 nM | 0.000828 s⁻¹ | 16700 M⁻¹ s⁻¹ |
| B8 | 8.8 nM | 6.62e-05 s⁻¹ | 7550 M⁻¹ s⁻¹ |
| B9 | 54 nM | 0.00103 s⁻¹ | 18900 M⁻¹ s⁻¹ |
| B10 | 17 nM | 0.00105 s⁻¹ | 61300 M⁻¹ s⁻¹ |
| B11 | 48 nM | 0.000842 s⁻¹ | 17700 M⁻¹ s⁻¹ |
| B12 | 57 nM | 0.000832 s⁻¹ | 14700 M⁻¹ s⁻¹ |
| B13 | 1.4 nM | 3.85e-05 s⁻¹ | 27900 M⁻¹ s⁻¹ |
| B14 | 169000 nM | 0.00047 s⁻¹ | 2.8 M⁻¹ s⁻¹ |
| B15 | 0.37 nM | 0.000123 s⁻¹ | 332000 M⁻¹ s⁻¹ |
| B16 | 15 nM | 0.000531 s⁻¹ | 35100 M⁻¹ s⁻¹ |
| B17 | 8.8 nM | 0.000328 s⁻¹ | 37000 M⁻¹ s⁻¹ |
